The record followed here is publication PMC11789342, “5-Aminolevulinic acid activates the MdWRKY71-MdMADS1 module to enhance anthocyanin biosynthesis in apple”.

The chains are these.
B1: ProMdMADS1 W-box1 mutant probe (dsDNA)
DNA 1: ACTTTGTGGCTTTAGCATTTTGAAGA
DNA 2: TCTTCAAAATGCTAAAGCCACAAAGT
B2: ProMdDFR W-box probe (dsDNA)
DNA 1: TGGGACTCTTCATTGACTCTCCGCCACATC
DNA 2: GATGTGGCGGAGAGTCAATGAAGAGTCCCA
B3: ProMdMADS1 W-box3 mutant probe (dsDNA)
DNA 1: CCTGAGGTTATTAACGCCAAAAGAAAA
DNA 2: TTTTCTTTTGGCGTTAATAACCTCAGG
B4: ProMdMADS1 W-box2 mutant probe (dsDNA)
DNA 1: ATTTACTATTTTTAGCATTACAATTT
DNA 2: AAATTGTAATGCTAAAAATAGTAAAT
B5: ProMdANS W-box probe (dsDNA)
DNA 1: ATCCCAGATGTGTTGACTGTTCATGCTCAG
DNA 2: CTGAGCATGAACAGTCAACACATCTGGGAT

MdWRKY71, sequence (A0A7S5AU16 entry or part of it): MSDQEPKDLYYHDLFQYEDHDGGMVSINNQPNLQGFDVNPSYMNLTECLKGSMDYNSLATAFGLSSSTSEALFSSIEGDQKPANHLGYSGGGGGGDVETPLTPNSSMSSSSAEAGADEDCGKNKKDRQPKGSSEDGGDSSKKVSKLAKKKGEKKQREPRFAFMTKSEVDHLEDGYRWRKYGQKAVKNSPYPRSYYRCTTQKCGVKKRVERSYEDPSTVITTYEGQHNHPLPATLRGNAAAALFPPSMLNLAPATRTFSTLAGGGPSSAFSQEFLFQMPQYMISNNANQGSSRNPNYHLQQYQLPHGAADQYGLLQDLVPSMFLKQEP

The series concerns the target MdWRKY71 (Malus x domestica, UniProt A0A7S5AU16 1-327). Kind of series: EMSA; LightShift Chemiluminescent EMSA Kit per manufacturer; buffer, salt, pH and temperature not stated. The settings on record: protein: recombinant; tags: His (pET32a); label: biotin.
Turning to B1, the binding result is “no binding”.

In the case of B2, the binding result was “binds”.

For the molecule B3, the binding result is given as “no binding”.

B4: the binding result is given as “no binding”.

On to B5, for which the binding result is listed as “binds”.
